Here are results for ten molecules from patent publication US20200277373A1 (DENALI THERAPEUTICS, published 2020).

Assay [1] deals with T1, His-tagged TREM2 ECD (ecto domain residues 19-172 of human TREM2, C-terminal 6X-His tag) (human, UniProt Q9NZC2 19-172).
T1 construct: Made in Expi293F cells; the mouse Ig kappa secretion signal is not part of the mature protein; Biotinylated for the Octet binning; also called TREM2-His; TREM2-His protein
T1 sequence: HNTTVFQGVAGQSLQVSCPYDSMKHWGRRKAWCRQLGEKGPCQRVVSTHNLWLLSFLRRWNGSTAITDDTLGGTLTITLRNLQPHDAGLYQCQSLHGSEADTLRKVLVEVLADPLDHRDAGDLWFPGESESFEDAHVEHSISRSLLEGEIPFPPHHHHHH
The assay is described as follows: Table 1 Kd; Biacore, TREM2-His analyte (presumed). As to the method:
Anti-murine Fc antibody (obtained from GE Healthcare) was immobilized on the surface of a CM5 chip (obtained from GE Healthcare) through amine-coupling to reach about 6,000 to 8,000 response units (RU). The surface was activated by injection of a mixture of 1-ethyl-3-(3-dimethylaminopropyl)-carbodiimide (EDC) and N-hydroxysuccinimide (NHS), both obtained from GE Healthcare, for 7 minutes. Anti-murine Fc antibody was diluted in sodium acetate (pH 5.0) at 25 μg/mL and injected for 10 minutes at a flow rate of 5 μL/minute, followed by injection of ethanolamine (obtained from GE Healthcare) for 7 minutes.
Purified anti-TREM2 hybridoma (20 μg/mL) was captured to reach 1000-1500 RU. A range of serially-diluted TREM2-His protein (e.g., 3.4 nM to 300 nM) was injected at a flow rate of 30 μL/minute, using either single-cycle kinetics methods. Sensorgrams were fitted using a 1:1 Langmuir model to estimate kₒₙ and koff.
A general note: In SPR one partner is held on a chip, and binding of the other changes the refractive index at the surface.

In assay [2] the target is T2, Human TREM2 protein, on cells (human, UniProt Q9NZC2 19-230).
T2 sequence: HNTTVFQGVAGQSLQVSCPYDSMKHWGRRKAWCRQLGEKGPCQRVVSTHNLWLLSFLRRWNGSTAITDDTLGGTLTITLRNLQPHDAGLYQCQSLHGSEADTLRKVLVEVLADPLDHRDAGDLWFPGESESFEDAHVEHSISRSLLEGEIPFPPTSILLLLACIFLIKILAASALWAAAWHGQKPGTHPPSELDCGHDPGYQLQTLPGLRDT
The assay is described as follows: cell-based or functional assay.

In assay [3] the target is T3, Mouse TREM2, on cells (mouse, UniProt Q99NH8 19-227).
T3 construct: whole, on cells; also called mouse TREM2 HEK
T3 sequence (looked up): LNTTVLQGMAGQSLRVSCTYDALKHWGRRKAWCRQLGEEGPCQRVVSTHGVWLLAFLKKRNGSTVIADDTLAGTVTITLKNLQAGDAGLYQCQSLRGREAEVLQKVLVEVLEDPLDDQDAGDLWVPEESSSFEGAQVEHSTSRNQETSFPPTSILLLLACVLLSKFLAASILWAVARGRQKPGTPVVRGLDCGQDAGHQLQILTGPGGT
The assay is described as follows: Table 5, cell binding: Mouse TREM2 HEK.

Assay [4] deals with T3, Mouse TREM2, on cells. The assay is described as follows: flow cytometry, 293F cells overexpressing mouse TREM2. On the procedure:
(§1) After labeling, cells were washed twice with 1×PBS. […] Mixed cell lines were seeded at 300,000 cells per well in a 96-well round-bottom and incubated 20 minutes at room temperature. After incubation, cells were centrifuged and test anti-TREM2 antibodies were added, then incubated for 45 minutes on ice. After incubation, cells were centrifuged and washed with FACS buffer three times.
(§2) The data in Table 2 is presented as fold over binding (FOB).

The target in assay [5] is T2, Human TREM2 protein, on cells. Briefly: flow cytometry, HEK293 cells overexpressing human TREM2. As to the method: as §1, §2
Assay [6] deals with T1, His-tagged TREM2 ECD (ecto domain …). Briefly: Biacore T200, antibody captured, antigen injected, 1:1 model. As to the method: To measure TfR binding, anti-human-Fab was immobilized on a CM5 chip, and the TREM2/TfR-binding protein was captured. Full-length human TfR or human TfR apical domain at serial dilution (e.g., concentrations of 1-1000 nM) was flowed over the chip (180 second association time) and then allowed to dissociate. Fitting was performed using a 1:1 binding model. To measure TREM2 binding, anti-human-Fc antibody was immobilized on a CM5 chip, and the TREM2/TfR-binding protein was captured. A range of concentrations of recombinant TREM2-His protein were flowed over the chip, and allowed to associate and dissociate. The resulting sensograms were fitted using a 1:1 Langmuir model to estimate kₒₙ and koff (FIG. 10).
Biacore Series S CM5 sensor chips were immobilized with a mixture of two monoclonal mouse anti-Fab antibodies (Human Fab capture kit from GE Healthcare). Serial 3-fold dilutions of each antigen were injected at a flow rate of 30 μL/min. The binding of the antigens to captured antibody was monitored for 30 to 180 seconds and then their dissociation was monitored for 30-300 seconds in HBS-EP+running buffer (GE, # BR100669). Binding response was corrected by subtracting the RU from a blank flow cell. A 1:1 Languir model of simultaneous fitting of kₒₙ and koff was used for kinetics analysis.

B1: 21D11 (antibody, IgG2a, V domains shown)
VH: QVQLQQSGAELARPGASVKLSCKASGYTFTSYWIQWVKQRPGQGLEWIGTIYPGDGDARYTQKFKGKATLTADKSSSTTYMQLNSLASEDSAVYYCARNGITTAGYYAMDYWGQGTSVTVSS
VL: DIQMTQSPASLSVSVGETVTITCRASENIYSNLAWYQQKQGRSPQLLVYAATNLADGVPSRFSGSGSGTQYSLKINSLQSEDFGYYYCQHFWGTPYTFGGGTKVEIK
notes: Mouse hybridoma antibody, IgG2a, k; also called 21D11.B1; RS8.21D11.B1
In general, Kd refers to the constant that tells how readily two partners part at equilibrium. A lower Kd goes with a tighter complex. As to B1, the Kd in assay [1] amounted to 0.525 nM. Also, the “pSyk FOB (30 nM Ab)” value in assay [2] is 1.68 fold over background. Also, the binding result in assay [3] was “no binding”. Moreover, the entries for the “FOB (fold over binding)” value in assay [4] and in assay [5] were 1.5 fold and 8.4 fold, respectively.

B2: 51D4 (antibody, IgG2a, V domains shown)
VH: QVHLQQSGPEVVRPGVSVKISCKGSGYTFTDYGMHWVKQSHAKSLEWIGVISTYNGNTSYNQKYKGKATVTVDKPSSTAYMELVRLTSEDSAIYYCARDFGYVPFDYWGQGTTLTVSS
VL: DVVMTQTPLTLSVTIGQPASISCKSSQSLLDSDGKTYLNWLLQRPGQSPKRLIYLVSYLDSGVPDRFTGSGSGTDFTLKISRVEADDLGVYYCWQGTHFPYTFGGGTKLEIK
notes: Mouse hybridoma antibody, IgG2a, k; also called 51D4.A1; RS8.51D4.A1
With B2, in assay [1], the Kd was 2.67 nM. For the same molecule, in assay [2], the “pSyk FOB (30 nM Ab)” value is 1.12 fold over background. Also, the binding result in assay [3] is recorded as “no binding”. For the same molecule, the “FOB (fold over binding)” value in assay [4] worked out at 1.3 fold; in assay [5], 7.6 fold.

B3: 57D7.A1 (antibody, V domains shown)
VH: QVQLKESGPGLVAPSQSLSITCTVSGFSLSRYSVYWVRQPPGKGLEWLGMIWGGGNTDYNSALKSRLSISKDNSKSQVFLKMNSLQTDDSAMYYCVQYGGMDYWGQGTSVTVSS
VL: DVLMTQTPLSLPVSLGDQASISCRSSQSIVHSNGNTYLEWYLQKPGQSPKLLIYKVSNRFSGVPDRFSGSGSGTDFTLKISRVEAEDLGVYYCFQGSHVPYTFGGGTKLEIK
notes: Mouse hybridoma antibody, Ig2a, k; also called RS8.57D7.A1
In turn, B3 came in with a Kd in assay [1] of 2.41 nM. Besides, the “pSyk FOB (30 nM Ab)” value in assay [2] was determined as 5.02 fold over background. Further, the binding result in assay [3] is “no binding”. The “FOB (fold over binding)” value in assay [4] amounted to 1.7 fold; in assay [5], 11.5 fold.

B4: 3D3.A1 (antibody, V domains shown)
VH: EVQLQQSGPELVKPGASVKISCKTSGYTLSEYTMHWVIQSHGKSLEWIGGVIPNSGGTSYNQKFRDKASLTVDKSSSTAYLELRSLTSEDSAVYYCARGDDSYRRGYALDYWGQGTSVTVSS
VL: DIVMSQSPSSLAVSVGEKVTMSCKSSQSLLYSSNQKSYLAWYQQKPGQSPKLLIYWASTRESGVPDRFRGSGSGTDFTLTISSVKAEDLAVYYCQQYFSYPPTFGGGTKLEIK
notes: Mouse hybridoma antibody, Ig2a, k; also called RS8.3D3.A1
As usually defined, the koff is the rate constant with which the complex falls apart. Read a low koff as slow dissociation. As a reminder, the kon is the rate constant with which the complex forms. Higher therefore signals faster complex formation. Regarding B4, the Kd in assay [1] is 7.43 nM; in assay [6], 40 nM. The “pSyk FOB (30 nM Ab)” value in assay [2] came to 10.3 fold over background. In addition, the “FOB (fold over binding)” value in assay [4] was determined as 8.4 fold; in assay [5], 11.7 fold. This molecule also returned a koff in assay [6] of 0.019 s⁻¹. In addition, the kon in assay [6] came out at 480000 M⁻¹ s⁻¹.

B5: 7B10.A2 (antibody, V domains shown)
VH: EVQLQQSGPELVKPGASVKMSCKASGYTFTDYNMHWVKQSHGKSLEWIGYINPNNGGTTYNQKFKGKATLTVNKSSSTAYMELRSLTSEDSAVYYCATYNNHYFDSWGQGTTLTVSS
VL: DIQMTQTTSSLSASLGDRVTISCSASQGISNYLNWYQQKPDGTVKLLIYYTSNLHSGVPSRFSGSGSGTDYSLTISNLEPEDIATYYCQQYSNLPYTFGGGTKLEIK
On to B5, for which, in assay [2], the “pSyk FOB (30 nM Ab)” value amounted to 6.89 fold over background.

B6: 26D2.D1 (antibody, IgG2a, V domains shown)
VH: EVQLQQSGPELVKPGASVKMSCKASGYTFTSYVMHWVKQKPGQGLEWIGYINPYTDGTKYNEKFKGKATLTSDKSSSTAYMDLSSLTSEDSAVYYCARGEVRRYALDYWGQGTSVTVSS
VL: DIQMTQSSSSFSVSLGDRVTITCKASEDIYNRLAWYQQKPGNAPRLLISGATSLETGVPSRFSGSGSGKDYTLSITSLQTEDVATYYCQQYWSTPWTFGGGTKLEIK
notes: Mouse hybridoma antibody, IgG2a, k; also called RS8.26D2.D1
B6: in assay [1], the Kd was found to be 15 nM. For the same molecule, the “pSyk FOB (30 nM Ab)” value in assay [2] amounted to 1.73 fold over background. For the same molecule, the binding result in assay [3] was “no binding”. In addition, the results for the “FOB (fold over binding)” value in assay [4] and in assay [5] were 2.8 fold and 4.9 fold, respectively.

B7: 42E8.H1 (antibody, V domains shown)
VH: DVQLQESGPGLVKPSQSLSLTCTVTGYSITSDYAWNWIRQFPGNKLEWMGYINYSGRTIYNPSLKSRISITRDTSKNHFFLQLISVTTEDTATYYCARWNGNYGFAYWGQGTLVTVSA
VL: DVVMTQNPLSLPVSLGDQASISCRSSQSLVHINGNTYLHWYLQKPGQSPKLLIYKVSNRFSGVPDRFSGSGSGTDFTLKISRVEAEDLGVYFCSQTTHALFTFGSGTKLEIK
notes: Mouse hybridoma antibody, Ig2a, k; also called RS8.42E8.H1
On to B7, for which binding in assay [1] was put at a Kd of 17 nM. Moreover, the “pSyk FOB (30 nM Ab)” value in assay [2] amounted to 7.17 fold over background. Besides, the binding result in assay [3] is reported as “no binding”. Besides, the “FOB (fold over binding)” value came to 3.5 fold in assay [4] and 10.6 fold in assay [5].

B8: 26E2.A3 (antibody, V domains shown)
VH: QVHLQQSGSELRSPGSSVKLSCKDFDSEVFPISYMSWIRQKPGHGFEWIGDILPSIGGRIYGVKFEDRATLDADTVSNTAYLELNSLTSEDSAIYYCARKDYGSLAYWGQGTLVTVSA
VL: DVVMTQTPLSLPVSLGDQASISCRSSQSLVHINGNTYLQWFLQKPGQSPKLLIYKVSNRFSGVPDRFSGSGSGTAFTLKISRVEAEDLGVYFCSQSTHVPYTFGGGTKLEIK
notes: Mouse hybridoma antibody, Ig2a, k; also called RS8.26E2.A3
B8: the Kd in assay [1] amounted to 12.8 nM. Moreover, the “pSyk FOB (30 nM Ab)” value in assay [2] came out at 4.67 fold over background. The binding result in assay [3] is “no binding”. Moreover, the “FOB (fold over binding)” value in assay [4] stood at 1.5 fold; in assay [5] it was 10.3 fold.

B9: 21D4.D1 (antibody, V domains shown)
VH: QVQLQQSGADLLRPGVSVKISCKGSGYTFTDHAMHWVKQSHAESLEWIGVISTYSGDTGYNQKFKGKATMTVDKSSSTAYLELARLTSEDSAIYYCAREGHYDDAMDYWGQGTSVTVSS
VL: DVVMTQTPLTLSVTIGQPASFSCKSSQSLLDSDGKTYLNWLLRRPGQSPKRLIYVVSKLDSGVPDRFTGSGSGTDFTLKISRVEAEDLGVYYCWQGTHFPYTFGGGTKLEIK
notes: Mouse hybridoma antibody, Ig2a, k; also called RS8.21D4.D1
In turn, B9 showed a Kd in assay [1] of 1.82 nM. The binding result in assay [3] is “no binding”. Moreover, the entries for the “FOB (fold over binding)” value in assay [4] and in assay [5] were 4 fold and 12.3 fold, respectively.

B10: 40H3.A4 (antibody, V domains shown)
VH: EVQLQQSGAEVVKPGASVKLSCTASGFNIKDTYMHWVKQRPEQGLEWIGRIDPANGNTKYDPKFQGKATITADTSSNTAYLQLSSLTSEDTAVYYCATLFAYWGQGTLVTVSA
VL: DIVMTQAAFSNPVTLGTSASISCRSSKSLLHSNGITYLYWYLQKPGQSPQLLIYQMSNLASGVPDRFSSSGSGIDFTLRINRVEAEDVGVYYCAQNLELPTFGSGTKLEIK
notes: Mouse hybridoma antibody, isotype N.D; also called RS8.40H3.A4
Consider B10, for which the Kd in assay [1] came out at 0.898 nM. Moreover, in assay [2], the “pSyk FOB (30 nM Ab)” value was found to be 1.23 fold over background. In addition, in assay [3], the binding result is “no binding”. For the same molecule, the “FOB (fold over binding)” value came to 0.8 fold in assay [4] and 1 fold in assay [5].
